{"source": "paper PMC3448007", "binders": {"B1": {"name": "ANF-242 19-bp (dsDNA)", "DNA 1": "TGAAGTGGGGGCCACTTGA", "DNA 2": "TCAAGTGGCCCCCACTTCA"}}, "target": "NKX2.5 homeodomain (C56S) (Homo sapiens, UniProt P52952 137-197, C193S)", "sequence (P52952 137-197 C193S)": "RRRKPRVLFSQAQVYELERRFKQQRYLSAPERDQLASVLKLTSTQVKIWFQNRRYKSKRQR", "experiment": "crystal structure", "data": [{"binder": "B1", "values": [{"measurement": "binding result", "result": "binds"}]}]}
